One experiment concerns the target T1, SBP-fused phyB^PSM (Arabidopsis thaliana, UniProt P14713 1-652, chromophore-bound (phycocyanobilin, PCB)).
T1 sequence: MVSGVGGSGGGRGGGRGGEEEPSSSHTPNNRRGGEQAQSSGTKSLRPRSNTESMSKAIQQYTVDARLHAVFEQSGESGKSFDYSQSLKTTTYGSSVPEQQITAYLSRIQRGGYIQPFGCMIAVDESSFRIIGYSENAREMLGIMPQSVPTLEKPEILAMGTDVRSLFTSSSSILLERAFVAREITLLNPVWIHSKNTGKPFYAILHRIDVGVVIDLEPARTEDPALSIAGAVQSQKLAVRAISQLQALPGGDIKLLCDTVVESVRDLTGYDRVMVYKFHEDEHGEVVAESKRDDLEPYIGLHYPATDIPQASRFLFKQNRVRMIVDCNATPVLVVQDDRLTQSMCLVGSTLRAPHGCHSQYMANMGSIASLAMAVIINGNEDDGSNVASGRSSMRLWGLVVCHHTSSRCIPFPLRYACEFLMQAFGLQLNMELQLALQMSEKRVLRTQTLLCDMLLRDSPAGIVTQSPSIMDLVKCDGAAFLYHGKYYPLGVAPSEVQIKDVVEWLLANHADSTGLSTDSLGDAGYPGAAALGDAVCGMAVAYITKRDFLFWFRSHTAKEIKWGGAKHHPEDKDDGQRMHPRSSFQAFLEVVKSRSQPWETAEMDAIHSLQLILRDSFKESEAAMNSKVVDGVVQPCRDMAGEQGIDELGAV
As to the kind of experiment: pull-down.

Experiment [1] has as its target T2, SBP-fused full-length phyA (Arabidopsis thaliana, UniProt P14712 1-1122, chromophore-bound (phycocyanobilin, PCB)).
T2 sequence: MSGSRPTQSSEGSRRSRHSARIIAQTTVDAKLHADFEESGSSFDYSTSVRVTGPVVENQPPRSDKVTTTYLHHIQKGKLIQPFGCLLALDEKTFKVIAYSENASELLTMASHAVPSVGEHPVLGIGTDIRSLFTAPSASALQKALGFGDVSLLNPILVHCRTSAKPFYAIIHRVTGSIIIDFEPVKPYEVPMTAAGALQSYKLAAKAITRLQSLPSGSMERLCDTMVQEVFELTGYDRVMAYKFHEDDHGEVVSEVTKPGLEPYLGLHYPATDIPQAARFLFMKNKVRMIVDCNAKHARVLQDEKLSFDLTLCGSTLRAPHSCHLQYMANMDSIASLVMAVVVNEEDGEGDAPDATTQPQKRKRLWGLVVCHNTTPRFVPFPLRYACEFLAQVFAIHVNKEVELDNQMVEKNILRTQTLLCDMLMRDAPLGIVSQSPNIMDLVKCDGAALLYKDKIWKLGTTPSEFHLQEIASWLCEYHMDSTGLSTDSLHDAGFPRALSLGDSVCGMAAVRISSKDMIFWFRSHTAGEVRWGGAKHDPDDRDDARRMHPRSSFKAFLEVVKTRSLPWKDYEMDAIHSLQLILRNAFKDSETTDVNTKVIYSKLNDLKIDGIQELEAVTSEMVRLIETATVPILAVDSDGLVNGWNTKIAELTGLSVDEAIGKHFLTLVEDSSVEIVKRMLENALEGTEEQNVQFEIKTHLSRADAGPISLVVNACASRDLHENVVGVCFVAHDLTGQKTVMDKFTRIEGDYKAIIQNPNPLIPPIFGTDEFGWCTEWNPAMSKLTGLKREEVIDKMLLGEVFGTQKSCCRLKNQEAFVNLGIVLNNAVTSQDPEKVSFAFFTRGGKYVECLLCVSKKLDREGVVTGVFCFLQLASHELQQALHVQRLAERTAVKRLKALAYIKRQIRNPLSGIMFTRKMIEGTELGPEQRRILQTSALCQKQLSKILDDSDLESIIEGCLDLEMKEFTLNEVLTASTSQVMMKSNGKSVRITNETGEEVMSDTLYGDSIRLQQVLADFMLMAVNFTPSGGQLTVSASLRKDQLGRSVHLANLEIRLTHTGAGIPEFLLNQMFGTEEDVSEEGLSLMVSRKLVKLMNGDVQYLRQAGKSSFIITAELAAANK
Kind of experiment: pull-down.

B1: GST-fused APB (PIF3 1-113 a.a.) (domain or fragment)
chain: MPLFELFRLTKAKLESAQDRNPSPPVDEVVELVWENGQISTQSQSSRSRNIPPPQANSSRAREIGNGSKTTMVDEIPMSVPSLMTGLSQDDDFVPWLNHHPSLDGYCSDFLRD
On to B1, for which, in the experiment with SBP-fused phyB^PSM, the binding result was “binds”.

B2: GST-PIF3 (natural protein)
chain: MPLFELFRLTKAKLESAQDRNPSPPVDEVVELVWENGQISTQSQSSRSRNIPPPQANSSRAREIGNGSKTTMVDEIPMSVPSLMTGLSQDDDFVPWLNHHPSLDGYCSDFLRDVSSPVTVNEQESDMAVNQTAFPLFQRRKDGNESAPAASSSQYNGFQSHSLYGSDRARDLPSQQTNPDRFTQTQEPLITSNKPSLVNFSHFLRPATFAKTTNNNLHDTKEKSPQSPPNVFQTRVLGAKDSEDKVLNESVASATPKDNQKACLISEDSCRKDQESEKAVVCSSVGSGNSLDGPSESPSLSLKRKHSNIQDIDCHSEDVEEESGDGRKEAGPSRTGLGSKRSRSAEVHNLSERRRRDRINEKMRALQELIPNCNKVDKASMLDEAIEYLKSLQLQVQIMSMASGYYLPPAVMFPPGMGHYPAAAAAMAMGMGMPYAMGLPDLSRGGSSVNHGPQFQVSGMQQQPVAMGIPRVSGGGIFAGSSTIGNGSTRDLSGSKDQTTTNNNSNLKPIKRKQGSSDQFCGSS
B2: the binding result (in the experiment with SBP-fused phyB^PSM; in experiment [1]) was “binds” each time.
